Measured values taken from EP1865065A1.
Values belong to the substance of their own block, whether it stands above or below them.

Key:
Assay in all cases: cell-based or functional assay
[1] = target: murine LFA-3 (CD48) (murine) (UniProt P18181)
[2] = target: murine Intercellular adhesion molecule-1 (ICAM-1, CD54) (murine) (UniProt P13597)
[3] = target: murine B7-1 (CD80) (murine) (UniProt Q00609)
UniProt Q00609, sequence (Q00609 38-306): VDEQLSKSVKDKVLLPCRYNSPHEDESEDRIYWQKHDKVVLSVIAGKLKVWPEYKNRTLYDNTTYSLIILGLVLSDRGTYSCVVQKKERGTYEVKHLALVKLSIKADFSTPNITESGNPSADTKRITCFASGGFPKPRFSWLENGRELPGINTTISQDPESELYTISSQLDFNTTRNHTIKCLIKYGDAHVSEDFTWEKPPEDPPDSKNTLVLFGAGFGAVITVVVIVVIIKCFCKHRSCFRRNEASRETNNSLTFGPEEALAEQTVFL

UniProt P13597, sequence (P13597 28-537): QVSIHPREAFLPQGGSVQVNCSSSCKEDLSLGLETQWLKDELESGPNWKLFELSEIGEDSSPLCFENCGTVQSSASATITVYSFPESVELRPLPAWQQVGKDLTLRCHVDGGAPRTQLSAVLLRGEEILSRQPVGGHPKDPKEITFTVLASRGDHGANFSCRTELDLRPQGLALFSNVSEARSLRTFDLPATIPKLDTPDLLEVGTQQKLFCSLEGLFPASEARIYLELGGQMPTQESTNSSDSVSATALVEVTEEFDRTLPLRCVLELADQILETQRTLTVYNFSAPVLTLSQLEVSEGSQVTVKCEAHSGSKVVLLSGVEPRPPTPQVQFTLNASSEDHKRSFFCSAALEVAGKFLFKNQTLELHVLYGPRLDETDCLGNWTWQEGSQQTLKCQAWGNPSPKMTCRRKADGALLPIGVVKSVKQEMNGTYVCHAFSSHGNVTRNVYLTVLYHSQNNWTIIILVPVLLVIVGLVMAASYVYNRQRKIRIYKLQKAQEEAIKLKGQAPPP
UniProt P18181, sequence (P18181 23-217): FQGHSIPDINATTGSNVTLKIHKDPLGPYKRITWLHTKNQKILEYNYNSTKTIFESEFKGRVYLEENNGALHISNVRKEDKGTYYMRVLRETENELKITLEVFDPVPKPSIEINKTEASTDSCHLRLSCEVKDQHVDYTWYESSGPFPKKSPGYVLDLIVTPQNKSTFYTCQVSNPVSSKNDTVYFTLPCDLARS

reduction of the increased T-cell proliferation (3H-Thymidine) induced by MC38/LFA-3 stimulator cells with Con A [1]: 98%
Substance: Hamster anti-murine CD48 (BCM-1; clone HM48-1) (antibody)

Substance: Hamster anti-murine CD54 (ICAM-1; clone 3E2) (antibody)
reduction of the increased T-cell proliferation (3H-Thymidine) induced by MC38/ICAM-1 stimulator cells with Con A [2]: 88%

inhibition of the increased T-cell proliferation (3H-Thymidine) induced by MC38/B7-1 stimulator cells with Con A [3]: 83%
Substance: Hamster anti-murine CD80 (B7-1; clone 16-10A1) (antibody)
